Data: patent publication US20220175781A1, “CD40L COMPOSITIONS AND METHODS FOR TUNABLE REGULATION” (Obsidian Therapeutics, Inc., priority 2019, published 2022)
Where a chain is given by its changes, count along the chain named.

B1: OT-001673: Soluble CD40L (sCD40L) construct (protein)
chain: GSSGISLIAALAVDYVIGMENAMPWNLPADLAWFKRNTLNKPVIMGRHTWESIGRPLPGRKNIILSSQPGTDDRVTWVKSVDEAIAACGDVPEIMVIGGGRVIEQFLPKAQKLYLTHIDAEVEGDTHFPDYEPDDWESVFSEFHDADAQNSHSYCFEILERRGSMHMQKGDQNPQIAAHVISEASSKTTSVLQWAEKGYYTMSNNLVTLENGKQLTVKRQGLYYIYAQVTFCSNREASSQAPFIASLCLKSPGRFERILLRAANTHSSAKPCGQQSIHLGGVFELQPGASVFVNVTDPSQVSHGTGFTSFGLLKL
B2: OT-002080: construct with CD40L trimerization mutant (protein)
chain: MGGSGGGSGGGSGMIETYNQTSPRSAATGLPISMKIFMYLLTVFLITQMIGSALFAVYLHRRLDKIEDERNLHEDFVFMKTIQRCNTGERSLSLLNCEEIKSQFEGFVKDIMLNKEETKKENSFEMQKGDQNPQIAAHVISEASSKTTSVLQWAEKGYYTMSNNLVTLENGKQLTVKRQGLYYIGAQVTFCSNREASSQAPFIASLCLKSPGRFERILLRAANTHSSAKPCGQQSIHLFGVFELQPGASVFVNVTDPSQVSHGTGFTSFGLLKL
B3: OT-002082: construct with CD40L trimerization mutant (protein)
chain: B2 chain with H138G, G185Y, F239G, G240F

Tests used:
HEK-Blue CD40 = HEK-Blue CD40 assay with sCD40L constructs; assay type: cell-based; details: ligand treated
HEK293T cells [1] = assay: Soluble CD40L ELISA, transiently transfected HEK293T cells; assay type: cell-based, human; details: HEK293T cells, ELISA
Description: Soluble CD40L (sCD40L) constructs OT-001672, OT-001686, OT-001673, OT-001674, OT-001677, and OT-001684 were transiently transfected into HEK293T cells. Cells were treated with one of the following ligands 1 μM Shield-1, 50 μM TMP, 1 μM Bazedoxifene (BZD) or vehicle control.
The pg/mL levels of soluble CD40L were measured by ELISA (Table 14). Recombinant soluble CD40L was used as the standard in the experiments.

HEK293T cells [2] = assay: Surface expression of CD40L trimerization mutants, transfected HEK293T cells (FACS); assay type: cell-based, human; details: transiently transfected HEK293T cells
Description: Mutations were engineered within CD40L payload to reduce the binding affinity of CD40L payload for the CD40L endogenously expressed by cells. Constructs OT-002078, OT-002079, OT-002080, OT-002081, OT-002082 were generated with the CD40L trimerization mutants. HEK293T cells were transiently transfected with the constructs and CD40L expression was measured by FACS.

Molecule	functionality in HEK-Blue CD40 assay (HEK-Blue CD40)	ligand dependent regulation of soluble CD40L levels (HEK293T cells [1])	% CD40L positive (HEK293T cells [2]) [%]
B1	higher functionality	ligand dependent regulation	
B2			0.11
B3			0.028
